Measured values taken from article PMC8376870 (2021).

Biological target: GST-G511-V540 (TRPV6 S5 fragment) (Homo sapiens (Human), UniProt Q9H1D0)
Assay: in vitro pull-down (GST/His-MBP) with western blot

Sequence of GST-G511-V540 (TRPV6 S5 fragment) (Q9H1D0 511-540): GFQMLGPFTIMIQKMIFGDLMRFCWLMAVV

binding result: binds
B1: His-MBP-A603-L632 (TRPV6 S6 fragment) (protein)
chain: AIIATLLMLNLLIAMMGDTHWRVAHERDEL
